Measured values taken from PMC7804152, “Structural basis for the multi-activity factor Rad5 in replication stress tolerance”.

How the values were obtained:
[1] = target: T1, KlRad5 (Kluyveromyces lactis, UniProt Q6CJM4 163-1114); assay: pull-down; 50 mM NaCl; FP: 20 mM Tris pH 7.5, 50 mM (dsDNA, KlHIRAN) or 70 mM (ssDNA) NaCl, 2 mM MgCl2, 1 nM DNA, room temp; EMSA: 20 mM Tris pH 7.5, 100 mM KCl, 0.5 mM DTT, 3% glycerol, 2 mM MgCl2, 250 ug/mL BSA, 4 C; pull-down: 20 mM Tris pH 7.5, 50 mM NaCl, 4 C; details: protein: recombinant; tags: none; label: 5'-biotin; blunt, self-annealing, 2 copies of D1
T1 sequence: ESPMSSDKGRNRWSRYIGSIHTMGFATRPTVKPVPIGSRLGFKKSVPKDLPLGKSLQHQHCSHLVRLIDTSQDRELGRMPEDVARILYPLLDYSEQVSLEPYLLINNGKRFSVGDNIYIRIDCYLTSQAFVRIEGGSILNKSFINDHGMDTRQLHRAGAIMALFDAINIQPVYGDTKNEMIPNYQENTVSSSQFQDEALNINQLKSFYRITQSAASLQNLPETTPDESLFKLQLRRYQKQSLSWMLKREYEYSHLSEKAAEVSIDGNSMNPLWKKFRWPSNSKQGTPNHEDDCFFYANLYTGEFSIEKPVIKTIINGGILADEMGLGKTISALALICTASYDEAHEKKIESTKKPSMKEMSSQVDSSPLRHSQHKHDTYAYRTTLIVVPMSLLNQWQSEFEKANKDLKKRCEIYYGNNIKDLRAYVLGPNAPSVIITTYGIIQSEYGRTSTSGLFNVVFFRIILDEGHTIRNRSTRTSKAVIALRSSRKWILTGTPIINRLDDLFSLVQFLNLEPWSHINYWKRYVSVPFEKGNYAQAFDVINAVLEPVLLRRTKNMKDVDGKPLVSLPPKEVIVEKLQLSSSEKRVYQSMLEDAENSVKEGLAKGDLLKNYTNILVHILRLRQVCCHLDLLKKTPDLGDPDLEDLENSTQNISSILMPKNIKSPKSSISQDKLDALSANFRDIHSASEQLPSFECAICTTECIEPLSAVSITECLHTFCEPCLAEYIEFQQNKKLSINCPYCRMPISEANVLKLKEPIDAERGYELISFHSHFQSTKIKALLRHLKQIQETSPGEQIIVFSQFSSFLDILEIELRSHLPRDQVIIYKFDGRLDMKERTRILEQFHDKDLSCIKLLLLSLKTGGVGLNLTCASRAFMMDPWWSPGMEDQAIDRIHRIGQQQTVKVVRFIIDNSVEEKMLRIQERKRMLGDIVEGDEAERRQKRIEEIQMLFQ

[2] = target: T1, KlRad5; assay: hydrogen-deuterium exchange MS; 200 mM NaCl; protection of 548-554, 684-700, 1039-1049, 1081-1092; FP: 20 mM Tris pH 7.5, 50 mM (dsDNA, KlHIRAN) or 70 mM (ssDNA) NaCl, 2 mM MgCl2, 1 nM DNA, room temp; EMSA: 20 mM Tris pH 7.5, 100 mM KCl, 0.5 mM DTT, 3% glycerol, 2 mM MgCl2, 250 ug/mL BSA, 4 C; pull-down: 20 mM Tris pH 7.5, 50 mM NaCl, 4 C; details: protein: recombinant; tags: none; blunt, self-annealing, 2 copies of D1
[3] = target: T2, His-KlRad5 (Kluyveromyces lactis, UniProt Q6CJM4 163-1114); assay: fluorescence polarization; FP: 20 mM Tris pH 7.5, 50 mM (dsDNA, KlHIRAN) or 70 mM (ssDNA) NaCl, 2 mM MgCl2, 1 nM DNA, room temp; EMSA: 20 mM Tris pH 7.5, 100 mM KCl, 0.5 mM DTT, 3% glycerol, 2 mM MgCl2, 250 ug/mL BSA, 4 C; pull-down: 20 mM Tris pH 7.5, 50 mM NaCl, 4 C; details: protein: recombinant; tags: N-terminal His6; label: 5'-FAM; blunt
T2 sequence: T1 sequence

[4] = target: T1, KlRad5; assay: fluorescence polarization; 50 mM NaCl; high affinity, Kd only in figure; FP: 20 mM Tris pH 7.5, 50 mM (dsDNA, KlHIRAN) or 70 mM (ssDNA) NaCl, 2 mM MgCl2, 1 nM DNA, room temp; EMSA: 20 mM Tris pH 7.5, 100 mM KCl, 0.5 mM DTT, 3% glycerol, 2 mM MgCl2, 250 ug/mL BSA, 4 C; pull-down: 20 mM Tris pH 7.5, 50 mM NaCl, 4 C; details: protein: recombinant; tags: none; label: 5'-FAM; blunt
[5] = target: T3, KlHIRAN (Kluyveromyces lactis, UniProt Q6CJM4 174-341); assay: fluorescence polarization; 50 mM NaCl; stronger than blunt dsDNA; FP: 20 mM Tris pH 7.5, 50 mM (dsDNA, KlHIRAN) or 70 mM (ssDNA) NaCl, 2 mM MgCl2, 1 nM DNA, room temp; EMSA: 20 mM Tris pH 7.5, 100 mM KCl, 0.5 mM DTT, 3% glycerol, 2 mM MgCl2, 250 ug/mL BSA, 4 C; pull-down: 20 mM Tris pH 7.5, 50 mM NaCl, 4 C; details: protein: recombinant, tags: intein-CBD cleaved off
T3 sequence: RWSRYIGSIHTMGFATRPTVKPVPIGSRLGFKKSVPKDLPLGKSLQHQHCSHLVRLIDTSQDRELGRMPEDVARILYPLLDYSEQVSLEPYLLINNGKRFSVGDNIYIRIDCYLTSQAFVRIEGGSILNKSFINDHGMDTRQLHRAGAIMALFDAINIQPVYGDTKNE

B1: D1 dsDNA, 5'-biotin (dsDNA)
DNA 1: TCGGATCCTCTAGACAGCTCCATGCATGGAGCTGTCTAGAGGATCCGA
DNA 2: B1 DNA 1
Q: Does B1 bind [1]?
A: binds

B2: D1 dsDNA, unlabelled (dsDNA)
DNA 1: B1 DNA 1
DNA 2: B1 DNA 1
Q: Does B2 bind [2]?
A: binds

B3: D2a/D2b dsDNA (dsDNA)
DNA 1: ACCAGTGCCAGTGAT
DNA 2: ATCACTGGCACTGGT
Q: Does B3 bind [3]?
A: binds

Q: Does B3 bind [4]?
A: binds

Q: Does CAACGTCATAGACGATTACATTGCTACATGGAGCTGTCTAGAGGATCCGA (ssDNA) [D3a ssDNA] bind ([5]; label: 5'-FAM)?
A: binds

B4: D3a/D3c 5'-overhang dsDNA (dsDNA)
DNA 1: CAACGTCATAGACGATTACATTGCTACATGGAGCTGTCTAGAGGATCCGA
DNA 2: TCGGATCCTCTAGACAGCTCCATGT
Q: Does B4 bind ([5]; label: 5'-FAM on D3a, 5' overhang 25 nt (D3a))?
A: binds

B5: D3a/D3d 3'-overhang dsDNA (dsDNA)
DNA 1: B4 DNA 1
DNA 2: AGCAATGTAATCGTCTATGACGTTG
Q: Does B5 bind ([5]; label: 3'-FAM on D3a, 3' overhang 25 nt (D3a))?
A: binds
